“Also recorded” adds a separate entry of the source. Where two headings read alike, the source gives them in different places.
Key:
HvXET5 [1] = target: T1, HvXET5 (Hordeum vulgare, UniProt P93668); settings: 1 nM HvXET5, pH 6
Method: The effect of Ca^2+ (as calcium chloride) and Mg^2+ (as magnesium sulfate), both in 0-15 mM concentration ranges, and of EDTA in a 0-20 mM concentration range, were determined by incubating 1 nM HvXET5 in 100 mM succinate buffer, pH 6. Enzyme activities were determined radiometrically as specified above, in triplicate and with a standard error of 8-10%.

HvXET5 [2] = target: T1, HvXET5; experiment: pH optimum and enzyme stability of HvXET5; type: biochemical, barley (Hordeum vulgare L., cv. Clipper)
Method: The effect of pH on the activity of HvXET5 was determined by incubating 1 nM HvXET5 at 30° C. for 60 min in 50 mM citric acid/100 mM sodium dihydrophosphate (McIlvaine) buffers, pH 4.0-8.5 in the presence of 0.02% (w/v) BSA. […] The thermal stability of HvXET5 was determined after 15 min incubation at 0-70° C. The freeze/thaw stability of HvXET5 at 1 nM concentration was determined after three cycles of freezing (−80° C.) and thawing (4° C.), each of 3 min duration. Activity was subsequently measured at 30° C. in 100 mM ammonium acetate buffer, pH 6, containing 5 mM calcium chloride, without and with the addition of 10% (v/v) glycerol. Enzyme activity was determined radiometrically as specified above, and expressed as % activity relative to maximal activity. Assays were performed in triplicate and standard errors of 8-14% were observed.

[3] = substrate: OC[C@@H](O)[C@@H](O[C@@H]1O[C@H](CO[C@H]2OC[C@@H](O)[C@H](O)[C@H]2O)[C@@H](O[C@@H]2O[C@H](CO[C@H]3OC[C@@H](O)[C@H](O)[C@H]3O)[C@@H](O[C@@H]3O[C@H](CO[C@H]4OC[C@@H](O)[C@H](O)[C@H]4O)[C@@H](O)[C@H](O)[C@H]3O)[C@H](O)[C@H]2O)[C@H](O)[C@H]1O)[C@H](O)[C@@H](O)CO; experiment: Km and kcat constants of HvXET5; type: biochemical, barley (Hordeum vulgare L., cv. Clipper); settings: other: acceptor substrate
HvXET5 [4] = target: T1, HvXET5; experiment: Radiometric activity assay of HvXET5 with TXG and [3H]-labelled XXXGol; type: biochemical, barley (Hordeum vulgare L., cv. Clipper); settings: purified enzyme; 30° C., pH 6.0, 0.3% (w/v) TXG
Method: The activity of HvXET5 during enzyme purification was determined radiometrically at 30° C. in 100 mM succinate or ammonium acetate buffers, pH 6.0, containing 5 mM calcium chloride, 0.3% (w/v) TXG and [^3H]-labelled xyloglucan-derived saccharide heptaitol (XXXGol, specific radioactivity 83 MBq·μmol^−1) (Fry, et al., Biochem. J. 282, 821-828, 1992) with approximately 30,000 dpm per reaction mixture. The radioactivity incorporated in reaction products was counted on 2×1 cm Whatman chromatography 3MM paper strips in plastic vials and using LSC6500 Scintillation counter (Beckman, Fullerton, USA) with approximately 48% efficiency for tritium, using EcoLume scintillation fluid, and with 70% quenching. Enzyme activity of HvXET5 during purification is expressed in katals, where 1 kat represents 1 mol of product formed per s; specific activity is expressed in pkat·mg^−1 protein.

[5] = concentrations between 5 and 15 mM

Molecule: [Ca+2].[Cl-].[Cl-] [Ca^2+, calcium chloride]
- Stimulation of HvXET5 activity (HvXET5 [1]; [5]): 7-8%

Molecule: ethylenediamine tetraacetic (disodium salt, dihydrate) [EDTA]
- Inhibition of HvXET5 activity (HvXET5 [1]; 2-20 mM concentration ranges): approximately 30%

Molecule: OCC(O)CO [glycerol]
- Effect on HvXET activity after freeze-thawing cycles (HvXET5 [2]; 10% (v/v) addition): no effect

Molecule: O=S(=O)([O-])[O-].[Mg+2] [Mg^2+, magnesium sulfate]
- Inhibition of HvXET5 activity (HvXET5 [1]; [5]): 3-4%

B1: HvXET5 (Hordeum vulgare) (protein)
chain: APPRKPVDVPFEKNYVPTWAEDHIHYVNGGREVQLSLDKTTGTGFQTRGSYLFGHFSMHIKLVGGDSAGTVTAFYLSSQNSEHDEIDFEFLGNRTGQPYILQTNVFSGGKGDREQRIYLWFDPTKDYHSYSVLWNLYMIAFFVDDTPIRVFKNSKDLGVRYPFDQPMKLYSSLWNADDWATRGGREKTDWSKAPFVASYRGFHVDGCEASAEAKLCATQGARWWDQPEFQDLDAAQYRRLAWVRKEHTIYNYCTDRERYAAMSPECKRDRDV
- Km [3]: 69·10^−6 M

B2: HvXET5: barley xyloglucan xyloglucosyl transferase (XET isoenzyme) purified from extracts of 7-day-old barley seedlings (protein)
chain: MKATAGALLAVVATVLLRGIAAAPPRKPVDVPFEKNYVPTWAEDHIHYVNGGREVQLSLDKTTGTGFQTRGSYLFGHFSMHIKLVGGDSAGTVTAFYLSSQNSEHDEIDFEFLGNRTGQPYILQTNVFSGGKGDREQRIYLWFDPTKDYHSYSVLWNLYMIAFFVDDTPIRVFKNSKDLGVRYPFDQPMKLYSSLWNADDWATRGGREKTDWSKAPFVASYRGFHVDGCEASAEAKLCATQGARWWDQPEFQDLDAAQYRRLAWVRKEHTIYNYCTDRERYAAMSPECKRDRDV
modifications: Hordeum vulgare
notes: barley xyloglucan xyloglucosyl transferase (XET isoenzyme) purified from extracts of 7-day-old barley seedlings
- Specific activity (HvXET5 [4]): 3,630 pkat·mg^−1
- Activity at 0° C. relative to activity observed at 30° C. (HvXET5 [2]; 0° C.): approximately 40%
- pH optimum (HvXET5 [2]; 30° C., McIlvaine buffers pH 4.0-8.5): 6.0
- Freeze/thaw stability (HvXET5 [2]; several freeze-thaw cycles): did not lose activity
- Storage stability (retention of activity) (HvXET5 [2]; stored at −20° C.): retained its activity for at least a year; also recorded: remained more or less constant for at least a year
- Effect of buffer ionic strength on activity (HvXET5 [2]; succinate, ammonium acetate or sodium phosphate buffers, each at 50-200 mM): unaffected
